The values below come from patent publication US20210388087A1 (Chugai, published 2021).

First the molecules themselves.
B1: CE115HA000 N54S (antibody, human IgG1, kappa, L234A L235A, N297A, name in Kabat numbering)
heavy: QVQLVESGGGVVQPGRSLRLSCAASGFTFSNAWMHWVRQAPGKGLEWVAQIKAKSNSYATYYAESVKGRFTISRDDSKNSLYLQMNSLKTEDTAVYYCRYVHYGAYYGVDAWGQGTTVTVSSASTKGPSVFPLAPSSKSTSGGTAALGCLVKDYFPEPVTVSWNSGALTSGVHTFPAVLQSSGLYSLSSVVTVPSSSLGTQTYICNVNHKPSNTKVDKKVEPKSCDKTHTCPPCPAPEAAGGPSVFLFPPKPKDTLMISRTPEVTCVVVDVSHEDPEVKFNWYVDGVEVHNAKTKPREEQYASTYRVVSVLTVLHQDWLNGKEYKCKVSNKALPAPIEKTISKAKGQPREPQVYTLPPSRCELTKNQVSLSCAVKGFYPSDIAVEWESNGQPENNYKTTPPVLDSDGSFFLVSKLTVDKSRWQQGNVFSCSVMHEALHNHYTQKSLSLSPDYKDDDDK
chain: EPKSSDKTHTCPPCPAPELLGGPSVFLFPPKPKDTLMISRTPEVTCVVVDVSHEDPEVKFNWYVDGVEVHNAKTKPREEQYNSTYRVVSVLTVLHQDWLNGKEYKCKVSNKALPAPIEKTISKAKGQPREPQVCTLPPSRDELTKNQVSLWCLVKGFYPSDIAVEWESNGQPENNYKTTPPVLDSDGSFFLYSKLTVDKSRWQQGNVFSCSVMHEALHNRYTQKSLSLSP
light: DIVMTQSPLSLPVTPGEPASISCRSSQSLVHSNRNTYLHWYQQKPGQAPRLLIYKVSNRFSGVPDRFSGSGSGTDFTLKISRVEAEDVGVYYCGQGTQVPYTFGQGTKLEIKRTVAAPSVFIFPPSDEQLKSGTASVVCLLNNFYPREAKVQWKVDNALQSGNSQESVTEQDSKDSTYSLSSTLTLSKADYEKHKVYACEVTHQGLSSPVTKSFNRGEC
notes: one-arm antibody
B2: CE115HA000 S30G (antibody, human IgG1, kappa, L234A L235A, N297A, name in Kabat numbering)
heavy: B1 heavy with S30G, S57N
chain: B1 chain
light: B1 light
notes: one-arm antibody
B3: CE115HA000 R16Q (antibody, human IgG1, kappa, L234A L235A, N297A, name in Kabat numbering)
heavy: B1 heavy with R16Q, S57N
chain: B1 chain
light: B1 light
notes: one-arm antibody
B4: CE115HA000 Q105E (antibody, human IgG1, kappa, L234A L235A, N297A, name in Kabat numbering)
heavy: B1 heavy with S57N, Q114E
chain: B1 chain
light: B1 light
notes: one-arm antibody
B5: CE115HA000 S62E (antibody, human IgG1, kappa, L234A L235A, N297A, name in Kabat numbering)
heavy: B1 heavy with S57N, S65E
chain: B1 chain
light: B1 light
notes: one-arm antibody
B6: CE115HA000 R19T (antibody, human IgG1, kappa, L234A L235A, N297A, name in Kabat numbering)
heavy: B1 heavy with R19T, S57N
chain: B1 chain
light: B1 light
notes: one-arm antibody
B7: CE115HA000 N76S (antibody, human IgG1, kappa, L234A L235A, N297A, name in Kabat numbering)
heavy: B1 heavy with S57N, N79S
chain: B1 chain
light: B1 light
notes: one-arm antibody
B8: CE115HA000 S52cG (antibody, human IgG1, kappa, L234A L235A, N297A, name in Kabat numbering)
heavy: B1 heavy with S55G, S57N
chain: B1 chain
light: B1 light
notes: one-arm antibody
B9: CE115HA000 S52cY (antibody, human IgG1, kappa, L234A L235A, N297A, name in Kabat numbering)
heavy: B1 heavy with S55Y, S57N
chain: B1 chain
light: B1 light
notes: one-arm antibody
B10: CE115HA000 Q50I (antibody, human IgG1, kappa, L234A L235A, N297A, name in Kabat numbering)
heavy: B1 heavy with Q50I, S57N
chain: B1 chain
light: B1 light
notes: one-arm antibody
B11: CE115HA000 Q50D (antibody, human IgG1, kappa, L234A L235A, N297A, name in Kabat numbering)
heavy: B1 heavy with Q50D, S57N
chain: B1 chain
light: B1 light
notes: one-arm antibody
B12: CE115HA000 Q50K (antibody, human IgG1, kappa, L234A L235A, N297A, name in Kabat numbering)
heavy: B1 heavy with Q50K, S57N
chain: B1 chain
light: B1 light
notes: one-arm antibody
B13: CE115HA000 Q50S (antibody, human IgG1, kappa, L234A L235A, N297A, name in Kabat numbering)
heavy: B1 heavy with Q50S, S57N
chain: B1 chain
light: B1 light
notes: one-arm antibody
B14: CE115HA000 S52cA (antibody, human IgG1, kappa, L234A L235A, N297A, name in Kabat numbering)
heavy: B1 heavy with S55A, S57N
chain: B1 chain
light: B1 light
notes: one-arm antibody
B15: CE115HA000 S30D (antibody, human IgG1, kappa, L234A L235A, N297A, name in Kabat numbering)
heavy: B1 heavy with S30D, S57N
chain: B1 chain
light: B1 light
notes: one-arm antibody
B16: CE115HA000 S52cL (antibody, human IgG1, kappa, L234A L235A, N297A, name in Kabat numbering)
heavy: B1 heavy with S55L, S57N
chain: B1 chain
light: B1 light
notes: one-arm antibody
B17: CE115HA000 S52cQ (antibody, human IgG1, kappa, L234A L235A, N297A, name in Kabat numbering)
heavy: B1 heavy with S55Q, S57N
chain: B1 chain
light: B1 light
notes: one-arm antibody
B18: CE115HA000 S74A (antibody, human IgG1, kappa, L234A L235A, N297A, name in Kabat numbering)
heavy: B1 heavy with S57N, S77A
chain: B1 chain
light: B1 light
notes: one-arm antibody
B19: CE115HA000 S52cK (antibody, human IgG1, kappa, L234A L235A, N297A, name in Kabat numbering)
heavy: B1 heavy with S55K, S57N
chain: B1 chain
light: B1 light
notes: one-arm antibody
B20: CE115HA000 S62D (antibody, human IgG1, kappa, L234A L235A, N297A, name in Kabat numbering)
heavy: B1 heavy with S57N, S65D
chain: B1 chain
light: B1 light
notes: one-arm antibody
B21: CE115HA000 N82aD (antibody, human IgG1, kappa, L234A L235A, N297A, name in Kabat numbering)
heavy: B1 heavy with S57N, N86D
chain: B1 chain
light: B1 light
notes: one-arm antibody
B22: CE115HA000 S52cV (antibody, human IgG1, kappa, L234A L235A, N297A, name in Kabat numbering)
heavy: B1 heavy with S55V, S57N
chain: B1 chain
light: B1 light
notes: one-arm antibody
B23: CE115HA000 Q50Y (antibody, human IgG1, kappa, L234A L235A, N297A, name in Kabat numbering)
heavy: B1 heavy with Q50Y, S57N
chain: B1 chain
light: B1 light
notes: one-arm antibody
B24: CE115HA000 S52cD (antibody, human IgG1, kappa, L234A L235A, N297A, name in Kabat numbering)
heavy: B1 heavy with S55D, S57N
chain: B1 chain
light: B1 light
notes: one-arm antibody
B25: CE115HA000 R16E (antibody, human IgG1, kappa, L234A L235A, N297A, name in Kabat numbering)
heavy: B1 heavy with R16E, S57N
chain: B1 chain
light: B1 light
notes: one-arm antibody
B26: CE115HA000 S62K (antibody, human IgG1, kappa, L234A L235A, N297A, name in Kabat numbering)
heavy: B1 heavy with S57N, S65K
chain: B1 chain
light: B1 light
notes: one-arm antibody
B27: CE115HA000 S52cF (antibody, human IgG1, kappa, L234A L235A, N297A, name in Kabat numbering)
heavy: B1 heavy with S55F, S57N
chain: B1 chain
light: B1 light
notes: one-arm antibody
B28: CE115HA000 Q50E (antibody, human IgG1, kappa, L234A L235A, N297A, name in Kabat numbering)
heavy: B1 heavy with Q50E, S57N
chain: B1 chain
light: B1 light
notes: one-arm antibody
B29: CE115HA000 S62P (antibody, human IgG1, kappa, L234A L235A, N297A, name in Kabat numbering)
heavy: B1 heavy with S57N, S65P
chain: B1 chain
light: B1 light
notes: one-arm antibody
B30: CE115HA000 Q50L (antibody, human IgG1, kappa, L234A L235A, N297A, name in Kabat numbering)
heavy: B1 heavy with Q50L, S57N
chain: B1 chain
light: B1 light
notes: one-arm antibody
B31: CE115HA000 N54Y (antibody, human IgG1, kappa, L234A L235A, N297A, name in Kabat numbering)
heavy: B1 heavy with S57Y
chain: B1 chain
light: B1 light
notes: one-arm antibody
B32: CE115HA000 Q50A (antibody, human IgG1, kappa, L234A L235A, N297A, name in Kabat numbering)
heavy: B1 heavy with Q50A, S57N
chain: B1 chain
light: B1 light
notes: one-arm antibody

Substitutions are numbered along the chain they refer to.

For the test, the target named is T1, CD3 epsilon homodimer protein (UniProt P07766 23-126).
T1 construct: also called CD3 (CD3 epsilon)
T1 sequence (P07766 23-126): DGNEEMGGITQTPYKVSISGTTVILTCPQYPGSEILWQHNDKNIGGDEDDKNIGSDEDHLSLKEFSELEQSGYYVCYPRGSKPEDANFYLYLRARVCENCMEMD
Nature of the test: SPR, CD3 epsilon homodimer on chip, one-arm antibody as analyte.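 Also: surface plasmon resonance at 25 °C with CD3 epsilon homodimer amine-coupled to a CM4 sensor chip, antibody injected as analyte, HBS-EP+ as running buffer.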
Procedure: An appropriate amount of CD3 epsilon homodimer protein was immobilized onto Sensor chip CM4 (GE Healthcare Japan Corp.) by the amine coupling method. Then, the antibody having an appropriate concentration was injected thereto as an analyte and allowed to interact with the CD3 epsilon homodimer protein on the sensor chip. Then, the sensor chip was regenerated by the injection of 10 mmol/L glycine-HCl (pH 1.5). The assay was conducted at 25 degrees C., and HBS-EP+(GE Healthcare Japan Corp.) was used as a running buffer. […] Each parameter was calculated using Biacore T200 Evaluation Software (GE Healthcare Japan Corp.).
Take B1: the “KD ratio (KD of CE115HA000/KD of altered form)” value (shortened to “KD ratio”) came to 0.57. Then B2, with 0.93; and B3, with 0.87; and B4, with 0.89. As for B5, the “KD ratio” value worked out at 0.82.

On to B6, for which the “KD ratio” value turned out to be 0.81. Then B7, with 0.84; and B8, with 0.81. The value for B9 was 0.87. Then B10, with 1.21; and B11, with 75.4; and B12, with 0.71.

B13: the “KD ratio” value was found to be 47.4.

B14: the “KD ratio” value is 0.87.

For the molecule B15, the “KD ratio” value turned out to be 0.79.

On to B16, for which the “KD ratio” value was 0.94. Then B17, with 0.97. Then B18, with 0.77. Then B19, with 0.86; and B20, with 0.87; and B21, with 0.56. Turning to B22, the “KD ratio” value amounted to 0.82. The value for B23 was 49.1; that for B24 was 0.55; that for B25 was 0.74. Then B26, with 0.99; and B27, with 0.93; and B28, with 16700.

With B29, the “KD ratio” value was found to be 0.77. The value for B30 was 1.41; that for B31 was 1.03; that for B32 was 22.6.
